Reference: patent publication US20220056111A1 (YUROGEN BIOSYSTEMS, published 2022)

T1: HcoV-OC43 S protein (HcoV-OC43, UniProt P36334 14-1297)
T1 sequence: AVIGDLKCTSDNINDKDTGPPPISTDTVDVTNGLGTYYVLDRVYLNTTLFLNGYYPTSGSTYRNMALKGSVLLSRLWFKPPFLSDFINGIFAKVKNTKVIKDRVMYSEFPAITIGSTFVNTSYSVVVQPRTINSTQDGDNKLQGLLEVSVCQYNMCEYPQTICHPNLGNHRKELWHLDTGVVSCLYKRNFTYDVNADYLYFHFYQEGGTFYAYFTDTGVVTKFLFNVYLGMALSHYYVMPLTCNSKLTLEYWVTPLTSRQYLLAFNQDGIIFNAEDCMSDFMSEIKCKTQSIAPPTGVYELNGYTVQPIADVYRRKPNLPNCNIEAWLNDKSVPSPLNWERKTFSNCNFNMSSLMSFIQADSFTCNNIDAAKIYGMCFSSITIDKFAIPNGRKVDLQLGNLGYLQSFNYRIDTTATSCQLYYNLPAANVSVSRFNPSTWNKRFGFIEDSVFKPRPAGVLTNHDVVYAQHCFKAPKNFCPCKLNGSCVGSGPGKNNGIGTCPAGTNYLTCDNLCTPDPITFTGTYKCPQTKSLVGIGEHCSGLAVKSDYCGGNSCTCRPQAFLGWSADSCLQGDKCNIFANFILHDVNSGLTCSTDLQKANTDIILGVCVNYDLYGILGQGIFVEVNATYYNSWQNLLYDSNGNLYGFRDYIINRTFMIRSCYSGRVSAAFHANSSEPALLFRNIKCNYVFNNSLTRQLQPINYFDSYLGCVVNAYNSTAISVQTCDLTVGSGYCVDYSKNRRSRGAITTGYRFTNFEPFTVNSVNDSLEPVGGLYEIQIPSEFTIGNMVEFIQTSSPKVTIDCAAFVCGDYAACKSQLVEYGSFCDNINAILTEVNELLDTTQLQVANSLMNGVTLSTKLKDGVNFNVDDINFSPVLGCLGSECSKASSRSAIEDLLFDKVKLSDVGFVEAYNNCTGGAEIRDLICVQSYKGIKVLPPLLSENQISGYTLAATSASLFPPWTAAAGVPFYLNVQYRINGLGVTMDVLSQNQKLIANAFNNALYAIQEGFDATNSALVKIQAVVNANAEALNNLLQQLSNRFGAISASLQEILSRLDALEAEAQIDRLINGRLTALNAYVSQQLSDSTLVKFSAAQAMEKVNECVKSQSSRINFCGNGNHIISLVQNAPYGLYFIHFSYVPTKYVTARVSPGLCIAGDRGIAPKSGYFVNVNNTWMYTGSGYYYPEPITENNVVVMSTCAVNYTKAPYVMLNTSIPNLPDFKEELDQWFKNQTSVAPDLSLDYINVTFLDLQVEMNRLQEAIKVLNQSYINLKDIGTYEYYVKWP

T2: HcoV-229E S protein (HcoV-229E, UniProt P15423 16-1115)
T2 sequence: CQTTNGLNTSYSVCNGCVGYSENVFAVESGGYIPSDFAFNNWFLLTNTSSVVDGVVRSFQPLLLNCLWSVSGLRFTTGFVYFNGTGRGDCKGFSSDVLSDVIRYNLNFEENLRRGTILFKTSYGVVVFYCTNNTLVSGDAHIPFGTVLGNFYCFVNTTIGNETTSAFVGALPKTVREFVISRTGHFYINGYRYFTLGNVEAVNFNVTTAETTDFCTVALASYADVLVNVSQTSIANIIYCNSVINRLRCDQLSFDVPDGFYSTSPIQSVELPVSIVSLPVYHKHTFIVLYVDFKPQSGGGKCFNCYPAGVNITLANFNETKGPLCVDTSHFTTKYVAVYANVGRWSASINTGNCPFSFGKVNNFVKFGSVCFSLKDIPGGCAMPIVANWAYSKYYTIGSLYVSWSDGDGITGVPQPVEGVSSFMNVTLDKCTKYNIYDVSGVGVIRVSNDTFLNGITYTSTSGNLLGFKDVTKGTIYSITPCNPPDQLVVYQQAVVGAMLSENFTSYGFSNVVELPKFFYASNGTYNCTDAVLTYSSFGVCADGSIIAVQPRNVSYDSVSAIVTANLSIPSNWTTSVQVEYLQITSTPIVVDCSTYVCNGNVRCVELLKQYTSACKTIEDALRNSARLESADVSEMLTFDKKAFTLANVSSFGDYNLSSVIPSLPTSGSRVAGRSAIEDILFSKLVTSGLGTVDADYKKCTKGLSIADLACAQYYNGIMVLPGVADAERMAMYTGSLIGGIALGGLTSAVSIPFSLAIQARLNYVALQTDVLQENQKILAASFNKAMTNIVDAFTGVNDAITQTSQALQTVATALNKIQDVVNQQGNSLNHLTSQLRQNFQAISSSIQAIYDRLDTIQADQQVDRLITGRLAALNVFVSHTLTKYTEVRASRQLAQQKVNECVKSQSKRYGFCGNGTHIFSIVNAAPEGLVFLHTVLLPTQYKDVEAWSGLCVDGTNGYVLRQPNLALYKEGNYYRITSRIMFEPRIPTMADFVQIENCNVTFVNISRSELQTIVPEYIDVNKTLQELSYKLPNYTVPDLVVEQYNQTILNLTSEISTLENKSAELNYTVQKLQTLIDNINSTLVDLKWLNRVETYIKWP

T3: HcoV-NL63 S protein (HcoV-NL63, UniProt Q6Q1S2 19-1296)
T3 construct: also called hCov-NL63 S1
T3 sequence: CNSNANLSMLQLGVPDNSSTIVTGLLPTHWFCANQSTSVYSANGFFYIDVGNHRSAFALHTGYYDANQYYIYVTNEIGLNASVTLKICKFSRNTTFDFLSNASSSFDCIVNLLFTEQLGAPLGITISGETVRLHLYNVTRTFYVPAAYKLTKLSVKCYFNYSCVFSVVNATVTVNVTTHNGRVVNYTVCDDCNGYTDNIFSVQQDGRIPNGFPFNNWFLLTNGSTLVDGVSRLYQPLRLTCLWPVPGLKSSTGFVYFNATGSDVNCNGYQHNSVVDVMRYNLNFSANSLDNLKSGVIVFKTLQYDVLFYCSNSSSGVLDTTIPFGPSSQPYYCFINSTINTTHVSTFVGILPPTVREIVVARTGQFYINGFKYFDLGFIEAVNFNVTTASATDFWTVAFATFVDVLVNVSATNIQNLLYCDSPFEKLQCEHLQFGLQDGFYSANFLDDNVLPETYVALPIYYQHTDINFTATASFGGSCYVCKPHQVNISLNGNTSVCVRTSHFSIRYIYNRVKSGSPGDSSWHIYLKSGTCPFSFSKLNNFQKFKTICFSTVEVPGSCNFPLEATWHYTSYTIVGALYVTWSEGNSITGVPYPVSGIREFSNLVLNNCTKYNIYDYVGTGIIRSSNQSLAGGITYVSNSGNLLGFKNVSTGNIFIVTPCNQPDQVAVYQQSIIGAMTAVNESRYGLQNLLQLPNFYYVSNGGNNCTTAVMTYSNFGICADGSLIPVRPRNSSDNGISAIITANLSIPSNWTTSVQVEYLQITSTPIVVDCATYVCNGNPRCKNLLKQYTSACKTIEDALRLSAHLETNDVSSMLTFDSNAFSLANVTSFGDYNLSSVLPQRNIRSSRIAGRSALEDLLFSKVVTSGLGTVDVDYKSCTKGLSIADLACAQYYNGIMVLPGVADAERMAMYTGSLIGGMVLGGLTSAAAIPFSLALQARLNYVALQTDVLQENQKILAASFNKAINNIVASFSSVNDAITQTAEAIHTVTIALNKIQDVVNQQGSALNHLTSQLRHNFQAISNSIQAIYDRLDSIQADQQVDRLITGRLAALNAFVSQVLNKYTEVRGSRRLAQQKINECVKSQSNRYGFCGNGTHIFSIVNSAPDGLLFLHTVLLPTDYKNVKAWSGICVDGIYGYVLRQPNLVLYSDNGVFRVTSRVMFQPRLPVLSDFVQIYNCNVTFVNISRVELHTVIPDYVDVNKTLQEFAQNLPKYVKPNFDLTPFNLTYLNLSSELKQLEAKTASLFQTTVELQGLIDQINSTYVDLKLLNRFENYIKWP


Experiments:
[1] = molecular target: SARS-CoV-2 Spike S1 protein (SARS-CoV-2, UniProt P0DTC2 16-685)
[2] = molecular target: RBD (receptor binding domain) of the SARS-CoV-2 S1 (SARS-CoV-2, UniProt P0DTC2 319-541)
HcoV-OC43 S protein = molecular target: T1, HcoV-OC43 S protein; assay: direct ELISA, OD450
HcoV-229E S protein = molecular target: T2, HcoV-229E S protein; assay: direct ELISA, OD450
HcoV-NL63 S protein = molecular target: T3, HcoV-NL63 S protein; assay: direct ELISA, OD450

Binder	Kd [1] [nM]	koff [1] [s⁻¹]	kon [1] [M⁻¹ s⁻¹]	EC50 (read off the curve) [2] [µg/mL]	binding result (HcoV-OC43 S protein)	binding result (HcoV-229E S protein)	binding result (HcoV-NL63 S protein)
rabbit monoclonal antibody 9H1 against the SARS-CoV-2 S1 (antibody, V domains shown) VH: QSVEESGGRLVTPGTPLTLTCTVSGFSLSRYAMSWVRQAPGKGLEWIGIIVDSGHTAYASWAKGRFTISRTSTTVDLKMTSLTTEDTATYFCARETGGGAFYVFEFWGPGTVVTVSS VL: AQVLTQTPSSVSAAVGGTVTINCQASEDIYDNLVWYQQKPGQPPKLLIYDASTLAFGVSSRFRGSGSGTHFTLTMRDVQCDDAATYYCQGEFSCSSGDCTAFGGGTEVVVKG	0.769	0.00025	325000	~0.02	no binding	no binding	no binding
rabbit monoclonal antibody 5E1 against the SARS-CoV-2 S1 (antibody, V domains shown) VH: QSVEESGGRLVTPGTPLTLTCTVSGIDLSSYAMGWVRQAPGKGLEYIGIIYISGLTYYASWAKGRFTISKTSTTVDLKIPSPTTEDTATYFCARGEYNSHSHYLLWGPGTLVTVSS VL: AYDMTQTPSSVSEPVGGTVSIKCQASQNIYSNLAWYQQKPGQRPKLLIYDASQLASGVPSRFKGSGSGTEYTLTISGVECADAATYYCQQGFESSDIFNVFGGGTEVVVKG	≤ 0.138	≤ 1e-05	72300	–	no binding	no binding	no binding
